Here are results for six molecules from article PMC9440430, “An intrinsically disordered transcription activation domain increases the DNA binding affinity and reduces the specificity of NFκB p50/RelA”.

The target in data set [1] is T1, p50/RelA-FL: p50 subunit (39-350);RelA-RHD (no TAD) (murine;murine, UniProt P25799;Q04207 39-350;19-321, |). The data set can be described thus: EMSA; SEC buffer 25 mM Tris pH 7.5, 150 mM NaCl, 0.5 mM EDTA, 1 mM DTT (FA buffer not stated explicitly; 5 nM DNA, RT incubation, read at 25 C); EMSA: SEC buffer 1:1. The settings on record: protein: recombinant;recombinant; tags: N-terminal His6;none; copies: 1;1. For orientation: A gel shift assay detects complexes by their altered migration in electrophoresis.

Data set [2] concerns the target T2, p50/RelA-FL: p50 subunit (39-350);RelA-FL (RHD + TAD) (murine;murine, UniProt P25799;Q04207 39-350;19-549, |). The description is as above. The settings on record: protein: recombinant;recombinant; tags: N-terminal His6;none; copies: 1;1.
Data set [3] has as its target T1, p50/RelA-FL: p50 subunit …. The experiment in a line: fluorescence anisotropy; SEC buffer 25 mM Tris pH 7.5, 150 mM NaCl, 0.5 mM EDTA, 1 mM DTT (FA buffer not stated explicitly; 5 nM DNA, RT incubation, read at 25 C); EMSA: SEC buffer 1:1. The settings on record: protein: recombinant;recombinant, tags: N-terminal His6;none, copies: 1;1.
Data set [4] deals with T2, p50/RelA-FL: p50 subunit …. The description is as above. The settings on record: protein: recombinant;recombinant, tags: N-terminal His6;none, copies: 1;1.
Setting [5] is: label: 5' fluorescein on forward or reverse strand.
[6] abbreviates: label: 5' fluorescein (FITC), hairpin.

Where “and” joins values, the source holds several entries; their conditions need not be identical. Equal values may be shown once.

T2 sequence (P25799 39-350, chain 1 of 2): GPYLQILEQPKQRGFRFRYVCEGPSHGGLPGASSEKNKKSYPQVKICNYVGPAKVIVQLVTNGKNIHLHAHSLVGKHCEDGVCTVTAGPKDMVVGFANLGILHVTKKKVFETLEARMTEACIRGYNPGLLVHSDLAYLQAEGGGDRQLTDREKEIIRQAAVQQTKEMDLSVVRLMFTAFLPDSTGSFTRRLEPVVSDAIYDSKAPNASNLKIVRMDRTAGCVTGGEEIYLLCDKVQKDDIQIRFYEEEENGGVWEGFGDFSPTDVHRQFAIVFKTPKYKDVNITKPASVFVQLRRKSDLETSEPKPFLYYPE
T2 sequence (Q04207 19-549, chain 2 of 2): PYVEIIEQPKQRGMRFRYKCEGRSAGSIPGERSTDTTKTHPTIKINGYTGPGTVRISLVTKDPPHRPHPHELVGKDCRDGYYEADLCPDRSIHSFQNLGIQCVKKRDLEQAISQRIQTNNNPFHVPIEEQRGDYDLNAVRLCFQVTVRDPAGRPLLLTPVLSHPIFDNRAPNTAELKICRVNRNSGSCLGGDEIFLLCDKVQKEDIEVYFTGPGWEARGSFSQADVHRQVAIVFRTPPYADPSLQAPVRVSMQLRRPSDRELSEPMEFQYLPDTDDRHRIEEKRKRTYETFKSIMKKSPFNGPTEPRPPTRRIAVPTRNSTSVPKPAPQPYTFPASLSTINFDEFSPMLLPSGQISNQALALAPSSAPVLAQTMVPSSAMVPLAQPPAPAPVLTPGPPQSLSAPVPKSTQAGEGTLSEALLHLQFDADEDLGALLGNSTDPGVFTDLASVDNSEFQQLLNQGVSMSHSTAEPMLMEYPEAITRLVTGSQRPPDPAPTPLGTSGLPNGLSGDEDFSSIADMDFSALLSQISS
T1 sequence (P25799 39-350, chain 1 of 2): as the sequence (P25799 39-350, chain 1 of 2) above
T1 sequence (Q04207 19-321, chain 2 of 2): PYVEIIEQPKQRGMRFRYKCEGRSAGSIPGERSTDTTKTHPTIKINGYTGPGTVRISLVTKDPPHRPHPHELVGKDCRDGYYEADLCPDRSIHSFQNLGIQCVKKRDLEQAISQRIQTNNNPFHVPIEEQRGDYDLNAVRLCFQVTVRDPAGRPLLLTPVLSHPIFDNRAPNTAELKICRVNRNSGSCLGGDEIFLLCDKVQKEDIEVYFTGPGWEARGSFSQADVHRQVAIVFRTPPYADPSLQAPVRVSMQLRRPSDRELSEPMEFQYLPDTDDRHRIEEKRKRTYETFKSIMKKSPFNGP

B1: NFKBIA tandem 59 bp (dsDNA)
DNA 1: CTGACTGGCTTGGAAATTCCCCGAGCCTGACCCCGCCCCAGAGAAATCCCCAGCCAGCG
DNA 2: CGCTGGCTGGGGATTTCTCTGGGGCGGGGTCAGGCTCGGGGAATTTCCAAGCCAGTCAG
For B1, the binding result in data set [1] and in data set [2] was “binds” each time.

B2: HIV LTR tandem 33 bp (dsDNA)
DNA 1: AAGGGACTTTCCGCTGGGGACTTTCCAGGGAGG
DNA 2: CCTCCCTGGAAAGTCCCCAGCGGAAAGTCCCTT
For the molecule B2, the binding result in data set [1] and in data set [2] was “binds” throughout.

B3: NFKBIA tandem dsDNA (FA) (dsDNA)
DNA 1: CTTGGAAATTCCCCGAGCCTGACCCCGCCCCAGAGAAATCCCCAG
DNA 2: CTGGGGATTTCTCTGGGGCGGGGTCAGGCTCGGGGAATTTCCAAG
In the case of B3, the Kd (usually the concentration at which binding is half-saturated) was 1.7 nM and 10 nM in data set [3] (setting [5]); 1.5 nM and 5.1 nM in data set [4] (setting [5]).

B4: HIV LTR tandem dsDNA (FA) (dsDNA)
DNA 1: CAAGGGACTTTCCGCTGGGGACTTTCCAGG
DNA 2: CCTGGAAAGTCCCCAGCGGAAAGTCCCTTG
Take B4: the Kd in data set [3] (setting [5]) was found to be 1.7 ± 0.4 nM; in data set [4] (setting [5]) it was 1.3 ± 0.4 nM.
Take GTAGACGTGCTCCCCCAGCACGTCTAC (structured_DNA, 5' 5AmMC6 amino linker) [Random hairpin]: the values for the Kd in data set [3] (setting [6]) and in data set [4] (setting [6]) were 1500 ± 100 nM and 130 ± 40 nM, respectively.
Take GGGAAAGTACTCCCCCAGTACTTTCCC (structured_DNA, 5' 5AmMC6 amino linker) [Urokinase (UK) hairpin]: the equilibrium dissociation constant (Kd) in data set [3] (setting [6]) worked out at 6.3 ± 1.5 nM; in data set [4] (setting [6]), 2.2 ± 0.6 nM.
